Experimental data taken from IntAct's records for PubMed 25232744.

B1: T-box brain protein 1 (Homo sapiens), Q16650 (parent)
chain: MQLEHCLSPSIMLSKKFLNVSSSYPHSGGSELVLHDHPIISTTDNLERSSPLKKITRGMTNQSDTDNFPDSKDSPGDVQRSKLSPVLDGVSELRHSFDGSAADRYLLSQSSQPQSAATAPSAMFPYPGQHGPAHPAFSIGSPSRYMAHHPVITNGAYNSLLSNSSPQGYPTAGYPYPQQYGHSYQGAPFYQFSSTQPGLVPGKAQVYLCNRPLWLKFHRHQTEMIITKQGRRMFPFLSFNISGLDPTAHYNIFVDVILADPNHWRFQGGKWVPCGKADTNVQGNRVYMHPDSPNTGAHWMRQEISFGKLKLTNNKGASNNNGQMVVLQSLHKYQPRLHVVEVNEDGTEDTSQPGRVQTFTFPETQFIAVTAYQNTDITQLKIDHNPFAKGFRDNYDTIYTGCDMDRLTPSPNDSPRSQIVPGARYAMAGSFLQDQFVSNYAKARFHPGAGAGPGPGTDRSVPHTNGLLSPQQAEDPGAPSPQRWFVTPANNRLDFAASAYDTATDFAGNAATLLSYAAAGVKALPLQAAGCTGRPLGYYADPSGWGARSPPQYCGTKSGSVLPCWPNSAAAAARMAGANPYLGEEAEGLAAERSPLPPGAAEDAKPKDLSDSSWIETPSSIKSIDSSDSGIYEQAKRRRISPADTPVSESSSPLKSEVLAQRDCEKNCAKDISGYYGFYSHS
B2: Forkhead box protein P2 (Homo sapiens), O15409-1 (parent)
chain: MMQESATETISNSSMNQNGMSTLSSQLDAGSRDGRSSGDTSSEVSTVELLHLQQQQALQAARQLLLQQQTSGLKSPKSSDKQRPLQVPVSVAMMTPQVITPQQMQQILQQQVLSPQQLQALLQQQQAVMLQQQQLQEFYKKQQEQLHLQLLQQQQQQQQQQQQQQQQQQQQQQQQQQQQQQQQQQQQQQQQHPGKQAKEQQQQQQQQQQLAAQQLVFQQQLLQMQQLQQQQHLLSLQRQGLISIPPGQAALPVQSLPQAGLSPAEIQQLWKEVTGVHSMEDNGIKHGGLDLTTNNSSSTTSSNTSKASPPITHHSIVNGQSSVLSARRDSSSHEETGASHTLYGHGVCKWPGCESICEDFGQFLKHLNNEHALDDRSTAQCRVQMQVVQQLEIQLSKERERLQAMMTHLHMRPSEPKPSPKPLNLVSSVTMSKNMLETSPQSLPQTPTTPTAPVTPITQGPSVITPASVPNVGAIRRRHSDKYNIPMSSEIAPNYEFYKNADVRPPFTYATLIRQAIMESSDRQLTLNEIYSWFTRTFAYFRRNAATWKNAVRHNLSLHKCFVRVENVKGAVWTVDEVEYQKRRSQKITGSPTLVKNIPTSLGYGAALNASLQAALAESSLPLLSNPGLINNASSGLLQAVHEDLNGSLDHIDSNGNSSPGCSPQPHIHSIHVKEEPVIAEDEDCPMSLVTTANHSPELEDDREIEEEPLSEDLE
partner: B1 chain

Variants of: B1
Details: with FOXP2, O15409-1

Variant | effect of a mutation on the interaction
N374H | disrupting interaction strength
P542R | decreasing interaction strength
K228E | disrupting interaction strength
Q178E | decreasing interaction strength
V356M | decreasing interaction strength
Q418R | disrupting interaction strength

Variants of: B2
Details: with tbr1_human TBR1, Q16650

Variant | effect of a mutation on the interaction
R553H | decreasing interaction strength
